Test results: patent publication US20250270339A1 (Alector, published 2025)
Where a chain is given by its changes, count along the chain named.

B1: TfR30 (mouse hybridoma antibody) (antibody, V domains shown)
VH: QVQLQQSGPQLVRPGASVKISCKASGYSFTNYWLHWVKQRPGQGLEWIGMIDPSDSETRLNQKFKDKATLTVDKSSSTAYMQLSSPTSEDSAVYYCARWGGGYYGFAYWGQGTLVTVSA
VL: DIVMTQSQKFMSTSVGDRVSITCKASQNVRTAVAWYQQKPGQSPKALIYLASNRHTGVPDRFTGSGSGTDFTLTISNVQSEDLADYFCLQHWNYPWTFGGGTKLEIK
notes: mouse IgG in hybridoma supernatant
B2: TfR2 (mouse hybridoma antibody) (antibody, V domains shown)
VH: EVQLQQSGPELVKPGASVKISCKASGYTFTDYNMHWVKQSHGKSLEWIGYIYPYNGGTGYNQKFKSKATLTVDNSSSTAYMELRSLTSEDSAVYYCATLYDGYYFDYWGQGTTLTVSS
VL: DILLTQSPAILSVSPGERVSFSCRASQSIGTSIHWYQQRTNGSPRLLIKYASESISGIPSRFSGSGSGTDFTLSINNVESEDIADYYCQQSNSWPFTFGSGTKLEIK
notes: as for B1
B3: TfR9 (mouse hybridoma antibody) (antibody, V domains shown)
VH: EVQLQQSGPELVKPGASVKISCKTSGYTFTEYAMHWVKQSHGKSLEWIGGINPNDGGTSYNQKFKGKATLTVDKSSSTAYMELRSLTSEDSAVYYCSSQRWLLRGGDYWGQGTTLTVSS
VL: not shown
notes: as for B1
B4: TfR1 (mouse hybridoma antibody) (antibody, V domains shown)
VH: QVQLQQSGPELVKPGASVKMSCKASGYTFTNYYIHWVKQRPGQGLEWIGWIYPGDGSTKYNEKFKGKTTLTADKSSSTAYMLLSSLTSEDSAIYFCARDGSSAPKFTYWGQGTLVTVSA
VL: DIVMTQSPSSLTVTAGEKVTMRCKSSQSLLNSGNQKNYLTWYQQKPGQPPKLLIYWASTRESGVPDRFTGSGSGTDFTLTISSVQAEDLAVYYCQNDYSYPLTFGAGTKLELK
notes: as for B1
B5: TfR10 (mouse hybridoma antibody) (antibody, V domains shown)
VH: QVQLQQSGPELVKPGASVKMSCKASGYTFTSYYIHWVKQRPGQGLEWIGWIYPGDGNTNYNEKFKGKTTLTADKSSSTAYMLLSSLTSEDSAIYFCARDGSIPFAYWGQGTLVTVSA
VL: B4 VL with R22S
notes: as for B1
B6: TfR3 (mouse hybridoma antibody) (antibody, V domains shown)
VH: QVQLRQSGPELVKPGASVRISCKASGYTFTSFYIHWVKQRPGQGLEWIGWIYPGDVNTHYSDKFKGKATLTADKSSSTAYMQLSSLTSEDSAVYFCAREGYGYFAYWGQGTLVTVSA
VL: B4 VL with R22S, S71V, A106S
notes: as for B1
B7: TfR24 (mouse hybridoma antibody) (antibody, V domains shown)
VH: B5 VH with A16T, G56D, N59H, K63N, G100Y, S101Y, I102G, P103R
VL: B4 VL with K18R, R22S, Y42F, L79V, S99G
notes: as for B1
B8: TfR5 (mouse hybridoma antibody) (antibody, V domains shown)
VH: B4 VH with S57N, K59N
VL: B4 VL with I54F
notes: as for B1
B9: TfR7 (mouse hybridoma antibody) (antibody, V domains shown)
VH: DVQLQESGPGLVKPSQSLSLTCTVTGYSITSDYAWNWLRQFPGNKLEWMGYISYSGYSRHNPSLKSRISITRDTSKNQFFLQLNSVTSEDTATYYCARGDWDFDYWGQGTTLTVSS
VL: DIVMTQSQKFMSTSVGDRVSVTCKASQNVLTNVAWYQQKPGHSPKALIYSSSSRNSGVPDRFTGSGSGTDFTLTISNVQSEDLAEYFCQQYNTYPYTFGGGTKLEIK
notes: as for B1
B10: TfR11 (mouse hybridoma antibody) (antibody, V domains shown)
VH: EVQLQQSGTVLARPGASVKMSCKASGYSFTSYWMHWVKQRPGQGLEWIGAIFPGNIDTIYNQKFKDKAKLTAVTSASTAYMELSSLTNEDSAVYFCTRLYYDYVWGAGTTVTVSS
VL: DIKMTQSPSSMYASLGERVTLTCKASQDINSYLSWFQQKPGKSPKTLIYHVNRLVDGVPSRFSGSGSGQDYSLTISSLEYEDMGIYYCLQYDEFPYTFGGGTKLEIK
notes: as for B1
B11: TfR6 (mouse hybridoma antibody) (antibody, V domains shown)
VH: DVQLVESGGGLVQPGGSRKLSCAASGFTFSSFGMHWVRQAPEKGLEWVAYISSGSSAIYYADTVKGRFTVSRDNPKNTLFLQMTSLRSEDTAIYYCATSYVYDPPWFAYWGQGTLVTVSA
VL: DIVMTQSHKFMSTSVGDRVSITCKASQDVSTAVAWYQQKPGQSPKLLIYWASTRPTGVPDRFTGSGSGTDYTLTISSVQAEDLALYSCQQHFSTPWTFGGGTKLEIK
notes: as for B1
B12: TfR4 (mouse hybridoma antibody) (antibody, V domains shown)
VH: QVQLQQSGAELVRPGTSVKVSCKASGYAFTNYLIEWVKQRPGQGLEWIGVINPGSGGTTYNEKFKGKATLTADKSSSTAYMQLSGLTSDDSAVYFCARRSPYFDYWGQGTTLTVSS
VL: SIVMTQTPKFLLVSAGDRVTITCKASQSVSNDVAWYQQKPGQSPKLLIYYASNRYTGVPDRFTGSGYGTDFTFTISTVQAEDLAVYFCHQDYISPTFGGGTKLEIK
notes: as for B1
B13: TfR18 (mouse hybridoma antibody) (antibody, V domains shown)
VH: B12 VH with V37I, S55N, G56N, G57D, K63M, G66A, A68T, S77N, G85S
VL: B12 VL with I93S
notes: as for B1
B14: TfR8 (mouse hybridoma antibody) (antibody, V domains shown)
VH: B12 VH with T59N, G85S
VL: B12 VL
notes: as for B1

Target: T1, huTfR Apical Domain-Avi-His (human, biotin on the Avi tag (BirA) where captured on streptavidin)
T1 construct: also called huTfR apical Avi-His; hTfR Apical
T1 chain: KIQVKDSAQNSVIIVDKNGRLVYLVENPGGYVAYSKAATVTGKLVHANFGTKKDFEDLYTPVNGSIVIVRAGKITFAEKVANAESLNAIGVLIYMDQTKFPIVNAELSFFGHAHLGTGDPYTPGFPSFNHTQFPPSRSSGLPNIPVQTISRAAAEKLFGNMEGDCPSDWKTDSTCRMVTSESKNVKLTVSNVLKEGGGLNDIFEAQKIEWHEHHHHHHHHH
Test: ELISA OD450, supernatant
Description: Hybridoma culture supernatants from 319 hybridomas obtained as described above were screened for their ability to bind Avi-His-tagged huTfR ECD, huTfR apical domain, and muTfR ECD (as described in Example 1) as compared to binding to an irrelevant Avi-His-tagged control protein. Briefly, 96-well polystyrene plates were coated with 5 μg/ml of streptavidin (Thermo Fisher, Cat #PI21125) in coating buffer (0.05M carbonate buffer, pH 9.6, Sigma, Cat #C3041) overnight at 4° C. Coated plates were then blocked with ELISA diluent (PBS+0.5% BSA+0.05% Tween20) for one hour. Blocking buffer was removed and Avi-His-tagged human TfR, human TfR apical domain, mouse TfR and an irrelevant Avi-His-tagged protein were added at 1 μg/ml in ELISA diluent and captured for 1 hour at room temperature. After washing three times with 300 μl of PBST (PBS+0.05% Tween20, Thermo 28352), the hybridoma cell culture supernatants were added (50 μl/well) to each well. After 30 minutes of incubation at room temperature, the plates were washed three times with 300 μl of PBST. Anti-mouse IgG Fc-HRP or anti-rat IgG Fc-HRP (Jackson Immunoresearch, Cat #115-035-071 and 112-036-071, respectively) secondary antibodies were diluted 1:5000 in ELISA diluent, added to each well at 50 μl/well, and incubated for 30 minutes at room temperature with shaking. After a final set of washes (3×300 μl in PBST), 50 μl/well of BioFx TMB substrate (Surmodics, Cat #TMBW-1000-01) was added to the wells. The reaction was then quenched after 5-10 mins with 50 μl/well of 2N sulfuric acid. The plates were read for absorbance at 450 nm on a SpectraMax M5 (Molecular Devices, Sunnyvale, CA) using SoftMax Pro software.

Binder | ratio over irrelevant protein [fold]
B1 | 29
B2 | 5
B3 | 10
B4 | 22
B5 | 35
B6 | 37
B7 | 31
B8 | 15
B9 | 48
B10 | 39
B11 | 37
B12 | 42
B13 | 32
B14 | 37

target: T2, Full length Mouse TfR on CHO cells (mouse, UniProt Q62351 1-763); test: FACS MFI, supernatant
T2 construct: also called CHO + muTfR
T2 sequence (Q62351 whole entry): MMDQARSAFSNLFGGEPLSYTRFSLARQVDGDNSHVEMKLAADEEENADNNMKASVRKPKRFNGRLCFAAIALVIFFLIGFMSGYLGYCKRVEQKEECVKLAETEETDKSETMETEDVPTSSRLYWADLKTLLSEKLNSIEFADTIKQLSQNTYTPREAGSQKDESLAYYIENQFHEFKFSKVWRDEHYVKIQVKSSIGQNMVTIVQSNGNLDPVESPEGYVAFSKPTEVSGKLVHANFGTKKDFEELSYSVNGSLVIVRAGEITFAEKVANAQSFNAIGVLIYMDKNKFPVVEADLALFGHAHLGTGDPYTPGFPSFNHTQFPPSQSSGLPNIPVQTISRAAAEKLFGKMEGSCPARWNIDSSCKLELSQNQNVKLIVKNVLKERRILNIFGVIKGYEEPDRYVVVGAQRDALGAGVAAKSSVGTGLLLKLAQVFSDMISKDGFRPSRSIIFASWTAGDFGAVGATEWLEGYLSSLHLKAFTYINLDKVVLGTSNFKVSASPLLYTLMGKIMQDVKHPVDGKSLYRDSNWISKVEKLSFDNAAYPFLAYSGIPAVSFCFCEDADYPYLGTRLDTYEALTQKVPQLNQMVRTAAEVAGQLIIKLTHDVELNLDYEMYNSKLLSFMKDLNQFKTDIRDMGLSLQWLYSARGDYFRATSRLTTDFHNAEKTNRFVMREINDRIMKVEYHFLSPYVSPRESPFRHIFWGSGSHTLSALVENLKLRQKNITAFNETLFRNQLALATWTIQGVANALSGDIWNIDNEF
Description: (§1) A total of 1536 anti-TfR hybridoma supernatants were initially screened for their ability to differentially bind CHO cells overexpressing human or mouse TfR cells compared to CHO parental cells by FACS. Overexpressing cells were harvested, washed and labeled with Pacific Blue, FITC and Pacific Orange dyes (ThermoFisher) to create uniquely barcoded cell populations. Barcoded cells (5×10⁴ of each cell population) were aliquoted into 96-well U-bottom plates and incubated with 50 μl of hybridoma cell culture supernatant or […] of commercially available purified mouse anti-human TfR monoclonal antibody (Sigma Aldrich, Cat #SAB4700515) and rat anti-mouse TfR antibody (Invitrogen, Waltham, MA, Cat #R17217) on ice for 30 minutes. After this primary incubation, the supernatants were removed via centrifugation, the cells were washed twice with 175 μl of ice-cold FACS buffer (PBS+1% FBS+2 mM EDTA), and the cells were then further incubated on ice for 20 minutes with anti-mouse IgG Fc-allophycocyanin (APC) or anti-rat IgG Fc-APC (Jackson Labs, Cat #115-136-071 and Cat #112-136-071, respectively) (diluted 1:1000). Following this secondary antibody incubation, the cells were again washed twice with ice-cold FACS buffer and resuspended in a final volume of 50 μl of FACS buffer. Binding intensity on cells was analyzed using the FACS Canto system (BD Biosciences), and the ratio of APC Mean Fluorescence Intensity (MFI) on each barcoded cell population was determined for each anti-TfR hybridoma supernatant tested.

Binder | fold over parental (CHO WT) [fold]
B1 | 1
B2 | 1
B3 | 1
B4 | 1
B5 | 1
B6 | 1
B7 | 1
B8 | 1
B9 | 1
B10 | 1
B11 | 1
B12 | 1
B13 | 1
B14 | 1

target: T3, Full length human TfR on CHO cells (human, UniProt P02786 1-760); test: FACS MFI, supernatant
T3 construct: also called CHO + huTfR; CHO + hTfR
T3 sequence (P02786 whole entry): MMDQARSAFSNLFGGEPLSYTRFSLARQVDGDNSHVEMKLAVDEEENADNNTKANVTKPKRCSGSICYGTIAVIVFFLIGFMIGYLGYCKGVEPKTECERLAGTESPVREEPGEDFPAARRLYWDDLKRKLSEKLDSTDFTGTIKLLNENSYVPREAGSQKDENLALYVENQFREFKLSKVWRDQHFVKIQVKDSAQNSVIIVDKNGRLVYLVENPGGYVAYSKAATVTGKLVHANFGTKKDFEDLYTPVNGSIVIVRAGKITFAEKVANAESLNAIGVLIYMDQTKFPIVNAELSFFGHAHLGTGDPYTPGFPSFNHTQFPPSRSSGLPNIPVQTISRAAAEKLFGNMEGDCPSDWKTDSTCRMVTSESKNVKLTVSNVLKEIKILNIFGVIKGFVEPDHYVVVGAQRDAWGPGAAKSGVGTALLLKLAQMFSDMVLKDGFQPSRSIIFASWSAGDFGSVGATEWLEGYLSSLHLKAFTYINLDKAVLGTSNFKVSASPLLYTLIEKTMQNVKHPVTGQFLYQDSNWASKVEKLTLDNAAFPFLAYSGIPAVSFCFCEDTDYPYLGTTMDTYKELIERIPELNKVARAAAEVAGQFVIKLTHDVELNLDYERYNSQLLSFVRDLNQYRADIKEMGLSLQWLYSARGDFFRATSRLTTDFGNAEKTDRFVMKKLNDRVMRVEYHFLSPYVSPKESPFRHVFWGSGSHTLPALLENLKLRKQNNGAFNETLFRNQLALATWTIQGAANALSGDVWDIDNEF
Description: as §1

Binder | fold over parental (CHO WT) [fold]
B1 | 169
B2 | 458
B3 | 203
B4 | 228
B5 | 389
B6 | 38
B7 | 370
B8 | 561
B9 | 87
B10 | 290
B11 | 451
B12 | 61
B13 | 75
B14 | 215

target: T2, Full length Mouse TfR on CHO cells; test: FACS, CHO+muTfR
Description: as §1

Binder | binding result
B2 | no binding
B3 | no binding
B4 | no binding
B5 | no binding
B6 | no binding
B7 | no binding
B8 | no binding
B9 | no binding
B10 | no binding
B11 | no binding
B12 | no binding
B13 | no binding
B14 | no binding
